Results published in paper PMC6511263 (Nature, 2018).

Biological target: T1, SETD3 (SET domain protein 3) (human, UniProt Q86TU7)
T1 sequence: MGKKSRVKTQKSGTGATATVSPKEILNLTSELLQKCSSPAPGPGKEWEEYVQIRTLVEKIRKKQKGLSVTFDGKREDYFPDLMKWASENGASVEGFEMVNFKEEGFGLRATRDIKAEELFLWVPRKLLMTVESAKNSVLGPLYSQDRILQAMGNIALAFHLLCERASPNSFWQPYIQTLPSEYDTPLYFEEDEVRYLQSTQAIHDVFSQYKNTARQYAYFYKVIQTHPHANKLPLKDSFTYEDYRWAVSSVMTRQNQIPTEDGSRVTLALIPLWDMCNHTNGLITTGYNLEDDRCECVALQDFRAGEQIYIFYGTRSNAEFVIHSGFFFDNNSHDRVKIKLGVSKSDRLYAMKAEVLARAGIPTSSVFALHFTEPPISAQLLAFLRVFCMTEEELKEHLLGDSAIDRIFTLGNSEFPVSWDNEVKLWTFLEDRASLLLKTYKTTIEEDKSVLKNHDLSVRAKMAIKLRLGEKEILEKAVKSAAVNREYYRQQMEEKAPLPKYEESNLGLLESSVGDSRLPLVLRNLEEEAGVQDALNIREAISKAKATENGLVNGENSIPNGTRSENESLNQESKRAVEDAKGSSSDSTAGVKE
Assay: crystal structure

- binding result: binds
Binder: TLKYPIEHGIVTNWD [Human beta-actin peptide (residues 66-80)]
